Results from PMC3734125, “Epitope Mapping and In Silico Characterization of Interactions between Der p 7 Allergen and MoAb WH9” (PLoS ONE, 2013).

Assays:
Test in all cases: far-Western, overlay or dot blot; SDS-PAGE immunoblot: purified recombinant Der p 7 proteins on PVDF membrane, incubated with hybridoma culture supernatant (1:10 in TTBS, 1% skim milk) 1 h at room temperature; band intensities quantified; percent reduction against the wild type
Details in all cases: one partner purified
[1] = target: T1, Der p 7 (wild type, recombinant) (Dermatophagoides pteronyssinus, UniProt P49273)
T1 construct: Mite allergen Der p 7, Dermatophagoides pteronyssinus, GenBank U37044; Expression and purification are described for the mutants (pQE80, E. coli JM109, Ni-NTA); also called wild-type Der p 7; source: purified recombinant protein

Der p 7 S156A mutant = target: T2, Der p 7 S156A mutant (Dermatophagoides pteronyssinus, UniProt P49273, S156A)
T2 construct: Mite allergen Der p 7, Dermatophagoides pteronyssinus, GenBank U37044; source: E. coli JM109, purified (Ni-NTA)

Der p 7 L158A mutant = target: T3, Der p 7 L158A mutant (Dermatophagoides pteronyssinus, UniProt P49273, L158A)
T3 construct: Mite allergen Der p 7, Dermatophagoides pteronyssinus, GenBank U37044; source: E. coli JM109, purified (Ni-NTA)

Der p 7 D159A mutant = target: T4, Der p 7 D159A mutant (Dermatophagoides pteronyssinus, UniProt P49273, D159A)
T4 construct: Mite allergen Der p 7, Dermatophagoides pteronyssinus, GenBank U37044; source: E. coli JM109, purified (Ni-NTA)

Der p 7 P160A mutant = target: T5, Der p 7 P160A mutant (Dermatophagoides pteronyssinus, UniProt P49273, P160A)
T5 construct: Mite allergen Der p 7, Dermatophagoides pteronyssinus, GenBank U37044; also called P106A (as printed once); source: E. coli JM109, purified (Ni-NTA)
T5 sequence (P49273 18-215 P177A): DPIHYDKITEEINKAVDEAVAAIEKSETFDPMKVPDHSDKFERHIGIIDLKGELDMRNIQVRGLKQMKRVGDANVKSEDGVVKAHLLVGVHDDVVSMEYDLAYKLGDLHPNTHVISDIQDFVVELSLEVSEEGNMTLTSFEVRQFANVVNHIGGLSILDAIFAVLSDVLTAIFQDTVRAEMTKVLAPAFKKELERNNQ

T4 sequence (P49273 18-215 D176A): as the sequence (P49273 18-215 P177A) above, with D159A, A160P counted along it
T3 sequence (P49273 18-215 L175A): as the sequence (P49273 18-215 P177A) above, with L158A, A160P counted along it
T2 sequence (P49273 18-215 S156A): as the sequence (P49273 18-215 P177A) above, with S139A, A160P counted along it
T1 sequence (P49273 18-215): as the sequence (P49273 18-215 P177A) above, with A160P counted along it

B1: MoAb WH9 (antibody, V domains shown)
VH: QVQLEQSGAELAKVGASVKMSCKASGYTFTNYWMHWVKQRPGQGLEWIGYINPSIGYIDYNQKFKDKATLTVDKSSSTAYMQLSSLTSEDSAVYYCAGVEYGSSLGDYFDDWGQGTTL
VL: not shown
notes: variable domain of the heavy chain of WH9; the first nine amino acids derive from the PCR primer; variable domain of the light chain of WH9; the first eight amino acids derive from the PCR primer; also called mouse monoclonal antibody WH9; source: hybridoma WH9, culture supernatant
binding result [1]: binds
mean percentage of reduction in immunoreactivity against the wild type (Der p 7 S156A mutant): 18%
mean percentage of reduction in immunoreactivity against the wild type (Der p 7 L158A mutant): 87%
mean percentage of reduction in immunoreactivity against the wild type (Der p 7 D159A mutant): 81%
mean percentage of reduction in immunoreactivity against the wild type (Der p 7 P160A mutant): 87%
